Measurements from paper PMC6265900.
pKi: −log10 of the molar value.

Assays:
[1] = molecular target: factor XIIa; assay: enzyme inhibition with chromogenic substrate (Dixon plot); enzyme (FXIIa 10 nM, plasma kallikrein 80 nM, trypsin 800 nM, elastase 400 nM) incubated with 0.5, 1 and 2 uM native poecistasin in 60 uL of 50 mM Tris buffer pH 7.4 for 5 min, then 0.2 mM chromogenic substrate; absorbance at 405 nm for 10 min; Ki from Dixon plot
[2] = molecular target: plasma kallikrein; assay: as above

native poecistasin (natural protein)
pKi [1]: 8.03
pKi [2]: 7.28
